# In patent publication US20170157212:
# Test system: purified recombinant CRIF1
substance,measurement,value
HA-tagged full-length human CDK12,"CDK12-mediated phosphorylation of the human GST-CTD substrate in vitro (immunoblot, CTD-Ser2P)","recombinant CRIF1 potently inhibited CDK12-mediated phosphorylation of the human GST-CTD substrate in vitro, in a dose-dependent manner"
same,S65 and T70 phosphorylation of recombinant 4E-BP1 in vitro (reactions with CDK12 and mTORC1/Raptor),"rCRIF1 potently and selectively inhibited S65 and T70 phosphorylation of 4E-BP1 in vitro, in a dose-dependent manner, without affecting phosphorylation of the T37/46 sites by mTORC1"
